Source: patent US20220105122A1 (UNIVERSITY OF TOKYO, published 2022)

B1: anti-human HVEM alpaca VHH antibody #3 (VHH)
VHH: QVQLVESGGGSVQPGGSLRLSCAASGSIGSIHRWDWYRLCPGKQREWVATLNSEGGPTYADSVEGRFTISRDNAKNMVYLQMNSLKPEDTAVYRCSARTVPFEYWGRGTQVTVSS
notes: Tested as VHH with a 6xHis tag; also called VHH #3; VHH(I); not shown: 6xHis tag added for the assay
B2: anti-human HVEM alpaca VHH antibody #2 (VHH)
VHH: QVQLVESGGGLVQPGGSLRLSCVASGRLFDTYTMAWYRLPPGKQRELVADISRTGFTNYADSVKGRFTISRDNAKNTVYLQMNSLKPDDTAHYRCKVREPATMYEYWGQGTQVTVSS
notes: Tested as VHH with a 6xHis tag; also called VHH #2; VHH(II); not shown: 6xHis tag added for the assay
B3: anti-human HVEM alpaca VHH antibody #1 (VHH)
VHH: QVQLVESGGGLVQPGGSLRLSCAASGFTFSTHAMSWYRQAPGKERELVAHISSTGGSTNYADSVKGRFTISRDNAKNTVYLQMNSLKPEDTAVYRCNARDWYEYWGRGTQVTVSS
notes: Tested as VHH with a 6xHis tag; also called VHH #1; not shown: 6xHis tag added for the assay
B4: anti-human HVEM alpaca VHH antibody #5 (VHH)
VHH: QVQLVESGGGLVQPGGSLRLSCAASGFTFSSSHMTWVRQAPGKGLEWVSLINSSGRTAYVDSVAGRFTISRDNAKNTLYLQMTNLKPEDTAVYYCSKGGWDGLPSSSIRGQGTQVTVSS
notes: Tested as VHH with a 6xHis tag; also called VHH #5; not shown: 6xHis tag added for the assay
B5: anti-human HVEM alpaca VHH antibody #4 (VHH)
VHH: QVQLVESGGGLVQPGGSLRLSCAAAESMLSPYSMGWYRLPPGKQRELVASLGSGGRTTYADSVKGRFTISRDNAKNTAYLQMNSLKPEDTAVYRCNIRELLGRRYEYWSQGTQVTVSS
notes: Tested as VHH with a 6xHis tag; also called VHH #4; not shown: 6xHis tag added for the assay

These binders were tested against T1, human HVEM (Herpes Virus entry mediator) expressed on HEK293T cells (human, UniProt Q92956 39-283) (assay: cell ELISA on fixed HVEM-expressing HEK293T cells, His-tagged VHH detected with anti-His-tag mAb-HRP).
T1 construct: whole, on cells; In the cell ELISA the HVEM-introduced HEK293T cells were fixed with 4% paraformaldehyde; in the reporter assay live HVEM-expressing HEK293T cells were used; also called TNFRSF14; HVEM/TNFRSF14
T1 sequence (looked up): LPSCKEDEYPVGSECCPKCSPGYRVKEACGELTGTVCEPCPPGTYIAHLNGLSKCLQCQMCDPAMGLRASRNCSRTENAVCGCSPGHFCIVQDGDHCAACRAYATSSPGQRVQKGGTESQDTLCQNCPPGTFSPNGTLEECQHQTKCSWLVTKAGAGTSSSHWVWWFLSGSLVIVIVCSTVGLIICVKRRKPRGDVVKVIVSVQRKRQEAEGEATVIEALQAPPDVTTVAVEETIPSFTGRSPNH
Source text: The VHH antibodies prepared in the above item (1) were used to measure whether the VHH antibodies were detected in HVEM on the surface of the HVEM-expressing HEK293T cell membrane. Specifically, the HEK293T cells introduced with HVEM and the HEK293T cells not expressing HVEM as a negative control were each seeded at 1×10⁴ cells/well, fixed with 4% paraformaldehyde, and then reacted with the VHH antibodies added with 6×His tag. The horseradish peroxidase HRP-labeled anti-histidine tag antibody anti-His-tag mAb-HRP-DirecT (MBL) was reacted, and ELISA POD Substrate TMB Kit (Nacalai Tesque, Inc.) was used to measure an enzyme reaction of HRP with the substrate. The effect size data obtained for the antibody concentration was subjected to non-linear regression to a sigmoid curve based on the following formula: […]

EC50, < 80 nM:
B1, B2, B3, B4, B5
